What was measured:
[1] = plasma insulin pharmacokinetics during euglycemic clamp; format: in vivo, human; settings: Without InsuPatch activation, 0.2 unit/kg s.c. bolus, mean±SEM
[2] = tested on: adolescents with type 1 diabetes; assay: euglycemic clamp, pharmacodynamics; format: in vivo, human; settings: difference with vs without InsuPatch activation; 0.2 u/kg bolus

With aspart insulin the “time to reach maximum increments in plasma insulin” value [1] was 67 ± 10 min and the “TGIRmax earlier with IP activation than without” value [2] was 35 min.

From publication PMC3572265 (Pediatric diabetes, 2012)
